In this test the target is T1, phosphorylated peptide CKATQA(p)SQEY corresponding to the C-terminal end of γ-H2AX (human).
T1 sequence (peptide, phosphoserine at S139 (7th letter of the printed peptide)): CKATQASQEY
The test can be described thus: SPR; Biacore T200, 25 °C, HBS-P (10 mM HEPES pH 7.4, 150 mM NaCl, 0.05% P20); phosphopeptide immobilised by thiol coupling of its N-terminal cysteine; VHH injected 120 s; Kd from equilibrium response fitted to a 1:1 model; fractional occupancy at saturating amounts (C6 180 nM, C6B 80 nM). Background: Surface plasmon resonance follows binding to a sensor surface in real time, without labels.

These results are taken from article PMC8267817.

B1: C6 nanobody (purified, monovalent) (VHH)
VHH: DVQLVESGGGLVQAGDSLRLSCAASGLTFSRYAMGWFRQAPGNEREFVAVITASGRTTLYADSVKGRFTISRDNAKNTVALQMQSLKPEDTAVYYCAADYGTSRYTRRQSEYEYWGQGTQVTVSS
The term Kd denotes the free concentration of one partner at which half of the binding sites on the other are occupied at equilibrium, for simple one-to-one binding. High values mean weaker binding, low ones tighter binding. Take B1: the Kd stood at 11 nM.
